Experiments:
[1] = target: recombinant human calreticulin (amino acids 18 to 417, N-terminal His-tag) (human) (UniProt P27797)
[2] = target: bovine liver calreticulin (bovine) (UniProt P52193); assay: SPR; bovine CRT or human recombinant S100A10 amine-coupled to CM5 chips (1000 to 1300 RU), BIACORE 3000; Glu-plasminogen (0-1 uM) or 0.5 uM bovine serum albumin flowed at 50 ul/min; 25 °C; HBS-ET (10 mM Hepes pH 7.4, 150 mM NaCl, 3 mM EDTA, 0.05% Tween-20); apparent KD from steady-state affinity model
[3] = target: human recombinant S100A10 (human) (UniProt P60903); assay: as above
Chain of UniProt P60903 (P60903 whole entry): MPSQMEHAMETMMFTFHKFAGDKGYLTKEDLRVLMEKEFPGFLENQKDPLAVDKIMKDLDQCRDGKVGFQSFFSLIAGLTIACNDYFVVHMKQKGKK

Chain of UniProt P27797 (P27797 18-417): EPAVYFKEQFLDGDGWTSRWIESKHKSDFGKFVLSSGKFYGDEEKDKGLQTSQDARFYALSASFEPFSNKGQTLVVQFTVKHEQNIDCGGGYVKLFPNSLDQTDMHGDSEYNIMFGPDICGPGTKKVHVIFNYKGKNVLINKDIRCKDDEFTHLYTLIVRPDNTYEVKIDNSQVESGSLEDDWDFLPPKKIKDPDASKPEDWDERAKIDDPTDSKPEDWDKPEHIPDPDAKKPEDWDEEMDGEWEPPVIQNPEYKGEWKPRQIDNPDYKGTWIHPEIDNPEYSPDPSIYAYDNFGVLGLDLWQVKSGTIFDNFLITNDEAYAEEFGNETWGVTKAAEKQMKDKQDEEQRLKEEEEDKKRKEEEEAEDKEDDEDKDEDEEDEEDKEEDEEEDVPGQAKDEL
Chain of UniProt P52193 (P52193 18-417): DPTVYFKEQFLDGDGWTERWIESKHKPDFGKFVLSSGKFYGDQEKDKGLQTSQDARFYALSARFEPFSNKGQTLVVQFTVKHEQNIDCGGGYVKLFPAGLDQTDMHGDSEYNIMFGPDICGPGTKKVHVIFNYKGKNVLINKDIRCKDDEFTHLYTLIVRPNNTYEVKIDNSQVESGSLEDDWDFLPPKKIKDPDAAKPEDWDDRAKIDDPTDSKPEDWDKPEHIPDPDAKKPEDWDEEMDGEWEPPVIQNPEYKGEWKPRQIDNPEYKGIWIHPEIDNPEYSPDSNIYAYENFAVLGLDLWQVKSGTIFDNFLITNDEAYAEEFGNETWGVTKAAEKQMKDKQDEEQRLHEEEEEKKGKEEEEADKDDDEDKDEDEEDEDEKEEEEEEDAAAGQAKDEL

## human Glu-plasminogen (natural protein)
[1]
  inhibition by 10 mM ε-ACA of the stimulation of tPA-dependent plasminogen activation by 0.5 μM recombinant human CRT: 80%
[2]
  Kd: 1900 nM
[3]
  Kd: 500 nM

Source: PMC10770727
